Patent US20220362394A1 (SUTRO BIOPHARMA, published 2022)

T1: human BCMA-Fc (human, UniProt Q02223 1-54)
T1 construct: Bought from R&D Systems; also called huBCMA-Fc; not shown: Fc part not described
T1 sequence: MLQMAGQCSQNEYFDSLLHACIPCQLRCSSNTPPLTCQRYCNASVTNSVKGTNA

T2: human BCMA on cells (human, UniProt Q02223 1-184)
T2 construct: also called hBCMA; BCMA on NCI-H929, ARP-1, OPM-2, U266B1, MM.1S, RPMI-8226 cells
T2 sequence: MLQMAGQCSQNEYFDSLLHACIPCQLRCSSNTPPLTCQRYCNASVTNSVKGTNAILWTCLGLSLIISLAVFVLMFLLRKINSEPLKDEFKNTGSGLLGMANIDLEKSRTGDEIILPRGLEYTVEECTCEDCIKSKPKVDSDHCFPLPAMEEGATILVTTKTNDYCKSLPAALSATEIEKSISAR


Experiments:
cynomolgus BCMA on cells = cynomolgus BCMA on cells (cynomolgus monkey, UniProt Q02223 1-184 (human entry)); test: FACS, 293T-cynoBCMA cells
Method: (§1) Variants for which sufficient protein was purified in secondary screening were tested in a fluorescence-activated cell sorting (FACS) cell-binding assay. […] 6-12 point dilutions of anti-BCMA variants starting from concentrations of about 100-200 nM antibody were dispensed into each well using a BioMekFX (Beckman Coulter). Cells were then incubated on ice for 1 hr, washed with FACS buffer and incubated for 1 hr on ice with […] FACS buffer containing 2.5 μg/ml Alexa647-conjugated Goat Anti-Human IgG dispensed using BioMekFX (Beckman Coulter). Cells were then washed 2× with FACS buffer and fixed for 10 minutes in […] PBS with 2% paraformaldehyde (PFA) prior to fluorescence detection. Samples were acquired using a Beckton Dickinson LSRII FACS. Geometric Mean Fluorescence Intensity of BCMA antibody binding was analyzed using FlowJo® software (Tree Star, Inc.).

human BCMA-Fc = target: T1, human BCMA-Fc; test: SPR Biacore, antibody captured, 25 C
Method: (§2) Anti-Fab or anti-Fc polyclonal antibodies were immobilized onto a CM5 chip (GE Life Sciences) using amine coupling chemistry (from Amine Coupling Kit, GE Life Sciences). The immobilization steps were carried out at a flow rate of 25 μL/min in 1×HBS-EP+ buffer (GE Life Sciences; 10× Stock diluted before use). The sensor surfaces were activated for 7 min with a mixture of NHS (0.05 M) and EDC (0.2 M). The anti-Fab or anti-Fc antibodies were injected over all 4 flow cells at a concentration of 25 μg/ml in 10 mM sodium acetate, pH 4.5, for 7 min. Ethanolamine (1 M, pH 8.5) was injected for 7 min to block any remaining activated groups.
(§3) Off-rate and kinetic binding experiments were performed at 25° C. using 1×HBS-EP+ buffer. […] After capturing ligand (antibody) on the anti-Fab or anti-Fc surface, the analyte (human BCMA-Fc, cyno BCMA-Fc, or human BCMA from R&D Systems, custom protein production, or Sigma Aldrich, respectively) was bound for 180 seconds, followed by a 600 second dissociation phase at a flow rate of 50 μL/min. Between each ligand capture and analyte binding cycle, regeneration was carried out using 2 injections of 10 mM glycine pH 2.0 for 30 seconds at 30 μL/min, followed by a 30 second buffer wash step.
(§4) The data was fit with the Biacore T200 Evaluation software, using a 1-1 Langmuir binding model. KD (affinity, nM) was determined as a ratio of the kinetic rate constants calculated from the fits of the association and dissociation phases.

human BCMA on cells = target: T2, human BCMA on cells; test: FACS, NCI-H929 cells
Method: as §1

cyno BCMA-Fc = target: T3, cyno BCMA-Fc (cynomolgus monkey, UniProt Q02223 1-54 (human entry)); test: SPR Biacore, antibody captured, 25 C
T3 construct: Custom protein production; also called cynomolgus BCMA-Fc; not shown: Fc part not described
Method: as §2, §3, §4

Chain of cynomolgus BCMA on cells (Q02223 other isoform, or with tags, fused parts or gaps): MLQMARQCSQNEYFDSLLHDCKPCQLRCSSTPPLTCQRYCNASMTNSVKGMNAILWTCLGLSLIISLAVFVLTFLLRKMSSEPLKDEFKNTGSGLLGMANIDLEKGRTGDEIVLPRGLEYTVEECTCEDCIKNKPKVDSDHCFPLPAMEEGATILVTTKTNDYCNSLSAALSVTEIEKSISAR

Binder	Bmax (cynomolgus BCMA on cells) [MFI]	Kd (cynomolgus BCMA on cells) [nM]	Kd (human BCMA-Fc) [nM]	koff (human BCMA-Fc) [s⁻¹]	kon (human BCMA-Fc) [M⁻¹ s⁻¹]	Bmax (human BCMA on cells) [MFI]	Kd (human BCMA on cells) [nM]	Kd (cyno BCMA-Fc) [nM]	koff (cyno BCMA-Fc) [s⁻¹]	kon (cyno BCMA-Fc) [M⁻¹ s⁻¹]
2137-C07 (antibody, V domains shown, IgG1 with His/FLAG tag, cell-free expressed, trastuzumab LC; also called Antibody 1) VH: EVQLVESGGGLVQPGGSLRLSCAASGFNISGSGIHWVRQAPGKGLEWVGFINPAGGYTDYADSVKGRFTISADTSKNTAYLQMNSLRAEDTAVYYCARDYVYQYWTYVLDYWGQGTLVTVSS VL: not shown	18500	10.1	1.63	0.000745	457000	–	–	–	–	–
2265-F02 (antibody, V domains shown, also called Antibody 4; Antibody 2265-F02) VH: EVQLVESGGGLVQPGGSLRLSCAASGFNISAPGIHWVRQAPGKGLEWVGFINPAGGYTDYADSVKGRFTISADTSKNTAYLQMNSLRAEDTAVYYCARDYIRQYWTYVLDYWGQGTLVTVSS VL: not shown	23800	6.2	0.499	0.000293	587000	11700	5.2	3.68	0.00116	315000
2265-F06 (antibody, V domains shown, also called Antibody 2) VH: EVQLVESGGGLVQPGGSLRLSCAASGFNISYPGIHWVRQAPGKGLEWVGFINPAGGYTDYADSVKGRFTISADTSKNTAYLQMNSLRAEDTAVYYCARDYILQYWTYVLDYWGQGTLVTVSS VL: not shown	25800	3.4	0.276	0.000193	699000	11400	4.5	3.84	0.00133	347000
2265-F03 (antibody, V domains shown, also called Antibody 7) VH: EVQLVESGGGLVQPGGSLRLSCAASGFNIRGPGIHWVRQAPGKGLEWVGFISPAAGYTDYADSVKGRFTISADTSKNTAYLQMNSLRAEDTAVYYCARDFVQSYWTYVLDYWGQGTLVTVSS VL: not shown	17400	2.5	0.633	0.000474	749000	11200	4.3	7.9	0.00274	346000
2265-E02 (antibody, V domains shown, also called Antibody 8) VH: EVQLVESGGGLVQPGGSLRLSCAASGFNIYVSGIHWVRQAPGKGLEWVGFINPAGGYTDYADSVKGRFTISADTSKNTAYLQTNSLRAEDTAVYYCARDYVYQYWTYVLDYWGQGTLVTVSS VL: not shown	21800	5	0.67	0.000383	571000	12200	4.5	5.75	0.00153	266000
2265-D05 (antibody, V domains shown, also called Antibody 10) VH: EVQLVESGGGLVQPGGSLRLSCAASGFNISGPGIHWVRQAPGKGLEWVGFINPAAGYTDYADSVKGRFAISADTSKNTAYLQMNSLRAEDTAVYYCARDFVYAYWTYVLDYWGQGTLVTVSS VL: not shown	21900	2.5	0.702	0.000485	691000	9620	4.4	4.53	0.00147	325000
2265-D11 (antibody, V domains shown, also called Antibody 9) VH: EVQLVESGGGLVQPGGSLRLSCAASGFNISGPGIHWVRQAPGKGLEWVGFINPAAGYTDYADSVKGRFTISADTSKNTAYLQMNSLRAEDTAVYYCARDYIYQYWTYVLDYWGQGTLVTVSS VL: not shown	21300	3.8	0.701	0.000537	766000	10900	4	3.24	0.00116	358000
